Source: patent US20260373285 (published 2026)
Read-outs that look alike come from different tables or passages of the source.

T1: human Trop-2 (His) (human, UniProt P09758)
T1 chain: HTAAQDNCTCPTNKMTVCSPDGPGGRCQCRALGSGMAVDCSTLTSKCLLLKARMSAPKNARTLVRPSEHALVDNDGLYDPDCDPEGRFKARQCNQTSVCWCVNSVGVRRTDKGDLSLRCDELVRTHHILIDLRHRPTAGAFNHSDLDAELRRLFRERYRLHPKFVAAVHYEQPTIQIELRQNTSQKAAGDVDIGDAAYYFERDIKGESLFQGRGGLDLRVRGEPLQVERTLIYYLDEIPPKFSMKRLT

T2: human Trop-2 on MDA-MB-468 cells (human, UniProt P09758)
T2 chain: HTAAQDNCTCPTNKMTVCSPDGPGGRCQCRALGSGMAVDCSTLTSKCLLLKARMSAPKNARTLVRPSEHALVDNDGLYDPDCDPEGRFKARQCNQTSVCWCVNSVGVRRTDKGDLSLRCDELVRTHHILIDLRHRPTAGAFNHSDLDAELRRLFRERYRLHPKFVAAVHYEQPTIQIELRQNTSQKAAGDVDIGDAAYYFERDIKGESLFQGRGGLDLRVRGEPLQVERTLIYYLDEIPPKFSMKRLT


Key:
human Trop-2 (His) [1] = biological target: T1, human Trop-2 (His); assay: SPR
[2] = biological target: T2, human Trop-2 on MDA-MB-468 cells; assay: FACS
human Trop-2 (His) [3] = biological target: T1, human Trop-2 (His); assay: SPR
human Trop-2 (His) [4] = biological target: T1, human Trop-2 (His); assay: SPR
human Trop-2 (His) [5] = biological target: T1, human Trop-2 (His); assay: ELISA
human Trop-2 (His) [6] = biological target: T1, human Trop-2 (His); assay: SPR
hPD-L1(ECD)-His [7] = biological target: T3, hPD-L1(ECD)-His (human, UniProt Q9NZQ7); assay: SPR
hPD-L1(ECD)-His [8] = biological target: T3, hPD-L1(ECD)-His; assay: SPR supernatant
human Trop-2 (His) [9] = biological target: T1, human Trop-2 (His); assay: SPR
hPD-L1(ECD)-His [10] = biological target: T3, hPD-L1(ECD)-His; assay: SPR; remark: listed apart in the source

T3 sequence (Q9NZQ7 19-238): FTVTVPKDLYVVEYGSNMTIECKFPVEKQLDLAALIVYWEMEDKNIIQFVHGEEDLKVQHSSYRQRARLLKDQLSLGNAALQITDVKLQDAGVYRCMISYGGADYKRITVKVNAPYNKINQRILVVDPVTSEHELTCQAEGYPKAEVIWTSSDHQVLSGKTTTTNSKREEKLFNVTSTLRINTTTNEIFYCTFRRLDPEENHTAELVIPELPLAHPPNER

Row | Kd (human Trop-2 (His) [1]) [nM] | EC50 [2] [µg/mL] | Kd (human Trop-2 (His) [4]) [nM] | Binder | other results
1 | 68.9 | 0.279 | – | Trop-2-A-258hz5 (antibody, V domains shown) VH: QVQLVESGGGLVQPGGSLRLSCAASDRTFSEYNADWFRQAPGKEREFVAAITWSGKNTRYADSVKGRFTVSRDNSKNTVYLQMNSLRPADTAVYYCATDRWWAAGNWDGVDYWGQGTLVTVSS | –
2 | 99.2 | 8.7 | – | Trop-2-A-258hz3 (antibody, V domains shown) VH: QVQLVESGGGLVQPGGSLRLSCAASDRTFSEYNADWFRQAPGKEREFVAAITWSGKNTRYADSVKGRFTVSRDNSKNTVYLQMNSLRAEDTAVYYCATDRWWAAGNWSGVDFWGQGTLVTVSS | –
3 | – | – | – | ALGA105X-ADC Trop-2 arm (antibody, V domains shown, exatecan drug-linker conjugate; full fusion SEQ69) V domain 1: EVQVVESGGGLVQPGGSLRLSCATSGYIFSNSGMGWYRQAPGKQRELVAAISSGGTTHYADSVKGRFTISRDNSKNTVYLQMNSLRAEDTAVYYCNGDRYYSGTDVFGSWGQGTLVTVSS V domain 2: QVQLVQSGGGLVQPGGSLRLSCAASDRTFSEYNADWFRQAPGKEREFVAAITWSGKNTRYADSVKGRFTVSRDNSKNTVYLQMNSLRAEDTAVYYCATDRWWAAGNWDGVDYWGQGTLVTVSS | Kd (human Trop-2 (His) [3]): 3.33 nM
4 | – | – | 2.76 | ALGA105T Trop-2 arm (antibody, V domains shown) V domain 1: QVQLVQSGGGLVQPGGSLRLSCAASDRTFSEYNADWFRQAPGKEREFVAAITWSGKNTRYADSVKGRFTVSRDNSKNTVYLQMNSLRAEDTAVYYCATDRWWAAGNWDGVDYWGQGTLVTVSS V domain 2: EVQVVESGGGLVQPGGSLRLSCATSGYIFSNSGMGWYRQAPGKQRELVAAISSGGTTHYADSVKGRFTISRDNSKNTVYLQMNSLRAEDTAVYYCNGDRYYSGTDVFGSWGQGTLVTVSS | –
5 | – | – | 2.44 | ALGA105S Trop-2 arm (antibody, V domains shown) V domain 1: EVQVVESGGGLVQPGGSLRLSCATSGYIFSNSGMGWYRQAPGKQRELVAAISSGGTTHYADSVKGRFTISRDNSKNTVYLQMNSLRAEDTAVYYCNGDRYYSGTDVFGSWGQGTLVTVSS V domain 2: QVQLVQSGGGLVQPGGSLRLSCAASDRTFSEYNADWFRQAPGKEREFVAAITWSGKNTRYADSVKGRFTVSRDNSKNTVYLQMNSLRAEDTAVYYCATDRWWAAGNWDGVDYWGQGTLVTVSS | Kd (human Trop-2 (His) [3]): 2.75 nM
6 | – | – | 2.22 | ALGA105O Trop-2 arm (antibody, V domains shown) V domain 1: EVQVVESGGGLVQPGGSLRLSCATSGYIFSNSGMGWYRQAPGKQRELVAAISSGGTTHYADSVKGRFTISRDNSKNTVYLQMNSLRAEDTAVYYCNGDRYYSGTDVFGSWGQGTLVTVSS V domain 2: QVQLVESGGGLVQAGGSLRLSCAASDRTFSEYNADWFRQAPGKEREFVAAITWSGKNTRYADSVKGRFTVSRDNAKNTVYLQMNSLKPEDTAVYYCATDRWWAAGNWDGVDYWGKGTLVTVSS | –
7 | 64.6 | 0.34 | – | Trop-2-A-258 (antibody, V domains shown) VH: QVQLVESGGGLVQAGGSLRLSCAASDRTFSEYNADWFRQAPGKEREFVAAITWSGKNTRYADSVKGRFTVSRDNAKNTVYLQMNSLKPEDTAVYYCATDRWWAAGNWDGVDYWGKGTLVTVSS | EC50 (human Trop-2 (His) [5]): 0.00557 µg/mL; Kd (human Trop-2 (His) [6]): 59.2 nM
8 | – | – | – | ALGA105S-ADC Trop-2 arm (antibody, V domains shown, exatecan drug-linker conjugate; full fusion SEQ67) V domain 1: EVQVVESGGGLVQPGGSLRLSCATSGYIFSNSGMGWYRQAPGKQRELVAAISSGGTTHYADSVKGRFTISRDNSKNTVYLQMNSLRAEDTAVYYCNGDRYYSGTDVFGSWGQGTLVTVSS V domain 2: QVQLVQSGGGLVQPGGSLRLSCAASDRTFSEYNADWFRQAPGKEREFVAAITWSGKNTRYADSVKGRFTVSRDNSKNTVYLQMNSLRAEDTAVYYCATDRWWAAGNWDGVDYWGQGTLVTVSS | Kd (human Trop-2 (His) [3]): 2.88 nM
9 | 74.7 | 0.227 | – | Trop-2-A-258hz7 (antibody, V domains shown) VH: QVQLVESGGGLVQPGGSLRLSCAASDRTFSEYNADWFRQAPGKEREFVAAITWSGKNTRYADSVKGRFTVSRDNSKNTVYLQMNSLRAEDTAVYYCATDRWWAAGNWDGVDYWGQGTLVTVSS | –
10 | – | – | 3.43 | ALGA105X Trop-2 arm (antibody, V domains shown) V domain 1: EVQVVESGGGLVQPGGSLRLSCATSGYIFSNSGMGWYRQAPGKQRELVAAISSGGTTHYADSVKGRFTISRDNSKNTVYLQMNSLRAEDTAVYYCNGDRYYSGTDVFGSWGQGTLVTVSS V domain 2: QVQLVQSGGGLVQPGGSLRLSCAASDRTFSEYNADWFRQAPGKEREFVAAITWSGKNTRYADSVKGRFTVSRDNSKNTVYLQMNSLRAEDTAVYYCATDRWWAAGNWDGVDYWGQGTLVTVSS | Kd (human Trop-2 (His) [3]): 3.43 nM
11 | 75.5 | 0.176 | – | Trop-2-A-258hz2 (antibody, V domains shown) VH: QVQLVQSGGGLVQPGGSLRLSCAASDRTFSEYNADWFRQAPGKEREFVAAITWSGKNTRYADSVKGRFTVSRDNSKNTVYLQMNSLRAEDTAVYYCATDRWWAAGNWDGVDYWGQGTLVTVSS | –
12 | – | – | – | PD-L1-1.168.15-z11-uIgG1K (antibody) chain 1: not shown chain 2: DIQMTQSPSFLSASVGDRVTITCKASQNVHTSLAWYQQKPGKSPKALIYLASNRHTGVPSRFSGSGSGTEFTLTISSLQPEDFATYFCLQHWNYPLTFGQGTKLEIKRTVAAPSVFIFPPSDEQLKSGTASVVCLLNNFYPREAKVQWKVDNALQSGNSQESVTEQDSKDSTYSLSSTLTLSKADYEKHKVYACEVTHQGLSSPVTKSFNRGEC | Kd (hPD-L1(ECD)-His [7]): 0.62 nM; Kd (hPD-L1(ECD)-His [8]): 0.863 nM
13 | – | – | – | Trop-2-B-YC-82 (antibody, V domains shown) VH: EVQVVESGGGLVQPGGSLRLSCATSGYIFSNSGMGWYRQAPGKQRELVAAISSGGTTHYADSVKGRFTISRDNAKSTVYLQMNSLKPEDTAVYYCNGDRYYSGTDVFGSWGQGTQVTVSS | Kd (human Trop-2 (His) [9]): 20.1 nM; Kd (human Trop-2 (His) [6]): 20.1 nM
14 | – | – | 99.4 | ALGA105M Trop-2 arm (antibody, V domains shown) V domain 1: EVQVVESGGGLVQPGGSLRLSCATSGYIFSNSGMGWYRQAPGKQRELVAAISSGGTTHYADSVKGRFTISRDNSKNTVYLQMNSLRAEDTAVYYCNGDRYYSGTDVFGSWGQGTLVTVSS V domain 2: EVQVVESGGGLVQPGGSLRLSCATSGYIFSNSGMGWYRQAPGKQRELVAAISSGGTTHYADSVKGRFTISRDNSKNTVYLQMNSLRAEDTAVYYCNGDRYYSGTDVFGSWGQGTLVTVSS | –
15 | – | – | – | ALGA105S-ADC PD-L1 arm (antibody, V domains shown, exatecan drug-linker conjugate; full fusion SEQ67:SEQ68) VH: EVQLVQSGAEVKKPGATVKISCKVSGFNIEDTYIYWVQQAPGKGLEWMGWIDPANYNTKYDPRFQDRVTITVDTSTDTAYMELSSLRSEDTAVYYCARGLRLLMDYWGQGTTVTVSS VL: DIQLTQSPSFLSASVGDRVTITCKASQNVHTSLAWYQQKPGKSPKLLIYLASNRHTGVPSRFSGSGSGTEFTLTISSLQPEDFATYYCLQHWNYPLTFGQGTKLEIKR | Kd (hPD-L1(ECD)-His [10]): 0.764 nM
16 | – | – | – | ALGA105X-ADC PD-L1 arm (antibody, V domains shown, exatecan drug-linker conjugate; full fusion SEQ69:SEQ70) VH: EVQLVQSGAEVKKPGATVKISCKVSGFNIEDTYIYWVQQAPGKGLEWMGWIDPANYNTKYDPRFQDRVTITVDTSTDTAYMELSSLRSEDTAVYYCARGLRLLMDYWGQGTTVTVSS VL: DIQLTQSPSFLSASVGDRVTITCKASQNVHTSLAWYQQKPGKSPKLLIYLASNRHTGVPSRFSGSGSGTEFTLTISSLQPEDFATYYCLQHWNYPLTFGQGTKLEIKR | Kd (hPD-L1(ECD)-His [10]): 0.652 nM
17 | – | – | – | Trop-2-B-16 (antibody, V domains shown) VH: EVQVVESGGGLVQPGGSLRLSCTAPERIFSIYNMGWYRQAPGKEREWVAFLMEGGRIEYADSVKGRFTISRDNAKSTVYLQMNNLNAEDAAVYYCNAGGRSGYWGKGTLVTVSS | EC50 (human Trop-2 (His) [5]): 0.0166 µg/mL; Kd (human Trop-2 (His) [6]): 5.21 nM
18 | – | – | 0.668 | ALGA105N Trop-2 arm (antibody, V domains shown) V domain 1: EVQVVESGGGLVQPGGSLRLSCATSGYIFSNSGMGWYRQAPGKQRELVAAISSGGTTHYADSVKGRFTISRDNSKNTVYLQMNSLRAEDTAVYYCNGDRYYSGTDVFGSWGQGTLVTVSS V domain 2: EVQVVESGGGLVQPGGSLRLSCTAPERIFSIYNMGWYRQAPGKEREWVAFLMEGGRIEYADSVKGRFTISRDNAKSTVYLQMNNLNAEDAAVYYCNAGGRSGYWGKGTLVTVSS | –
19 | 28.3 | 0.827 | 22.5 | Datopotamab (ALGA106B) (antibody, V domains shown) VH: QVQLVQSGAEVKKPGASVKVSCKASGYTFTTAGMQWVRQAPGQGLEWMGWINTHSGVPKYAEDFKGRVTISADTSTSTAYLQLSSLKSEDTAVYYCARSGFGSSYWYFDVWGQGTLVTVSS VL: DIQMTQSPSSLSASVGDRVTITCKASQDVSTAVAWYQQKPGKAPKLLIYSASYRYTGVPSRFSGSGSGTDFTLTISSLQPEDFAVYYCQQHYITPLTFGQGTKLEIKR | EC50 (human Trop-2 (His) [5]): 0.0507 µg/mL; Kd (human Trop-2 (His) [9]): 15.4 nM; Kd (human Trop-2 (His) [6]): 23.5 nM
20 | – | 0.151 | – | Sacituzumab (ALGA106A) (antibody, V domains shown) VH: QVQLQQSGSELKKPGASVKVSCKASGYTFTNYGMNWVKQAPGQGLKWMGWINTYTGEPTYTDDFKGRFAFSLDTSVSTAYLQISSLKADDTAVYFCARGGFGSSYWYFDVWGQGSLVTVSS VL: DIQLTQSPSSLSASVGDRVSITCKASQDVSIAVAWYQQKPGKAPKLLIYSASYRYTGVPDRFSGSGSGTDFTLTISSLQPEDFAVYYCQQHYITPLTFGAGTKVEIKR | EC50 (human Trop-2 (His) [5]): 0.027 µg/mL; Kd (human Trop-2 (His) [9]): 0.859 nM; Kd (human Trop-2 (His) [6]): 0.859 nM
